According to PMC3694306:
Blank lines part the entries; values can stand above or below the substance they belong to.

How the values were obtained:
[1] = biological target: EssB (full-length, membrane-bound, Geobacillus thermodenitrificans NG80-2) (Geobacillus thermodenitrificans NG80-2); assay: SEC; detergent-solubilised membrane-bound protein; Superdex200 HR 30/100 GL, buffers with 0.02% DDM and 1 ug/ml DOPC
[2] = biological target: EssB-N (N-terminal, predicted cytoplasmic fragment of EssB, Ser2 to Asp214) (Geobacillus thermodenitrificans NG80-2); assay: SEC; EssB-N (2 mg) in 100 mM citrate pH 5.5, 300 mM NaCl, 0.5% TCEP, 10% glycerol, 30 min at room temperature, Superdex75 HR 30/100 GL
[3] = biological target: EssB-N (N-terminal, predicted cytoplasmic fragment of EssB, Ser2 to Asp214) (Geobacillus thermodenitrificans NG80-2); assay: SEC; EssB-N (2 mg) in various test buffers with 0.5% TCEP and 10% glycerol (Tris-HCl pH 7.8 with 20 mM NaCl, with or without 5 mM EDTA; phosphate pH 7.8 or Bis-Tris pH 5.5 with 300 mM NaCl), 30 min at room temperature, Superdex75 HR 30/100 GL
[4] = biological target: EssB-N (N-terminal, predicted cytoplasmic fragment of EssB, Ser2 to Asp214) (Geobacillus thermodenitrificans NG80-2); assay: native gel or EMSA; blue native PAGE, linear 4-16% gradient Native Bis-Tris gel, 3 ug purified EssB-N
[5] = biological target: EssB^Δ E59C (cysteine-free template C48S, C108S, C171S), MTSSL spin-labelled (Geobacillus thermodenitrificans NG80-2); assay: SEC; detergent-solubilised membrane-bound protein; Superdex200 HR 30/100 GL, buffers with 0.02% DDM and 1 ug/ml DOPC
[6] = biological target: EssB^Δ E273C (cysteine-free template C48S, C108S, C171S), MTSSL spin-labelled (Geobacillus thermodenitrificans NG80-2); assay: as above
[7] = biological target: EssB-N D54C (cysteine-free template C48S, C108S, C171S), before MTSSL labelling (Geobacillus thermodenitrificans NG80-2); assay: SEC; EssB-N cysteine mutants before and after MTSSL labelling (data not shown)
[8] = biological target: EssB^Δ (membrane-bound EssB truncated by 31 C-terminal residues) (Geobacillus thermodenitrificans NG80-2); assay: SEC; detergent-solubilised membrane-bound protein; Superdex200 HR 30/100 GL, buffers with 0.02% DDM and 1 ug/ml DOPC
[9] = biological target: EssB-C (C-terminal extracytosolic fragment of EssB, Ala241 to Lys428) (Geobacillus thermodenitrificans NG80-2); assay: SEC; soluble fragments; Superdex75 prep grade HR 16/60, buffer C (10 mM sodium phosphate pH 7.8, 20 mM NaCl, 0.5 mM TCEP), column calibrated with molecular mass standards
[10] = biological target: EssB-C (C-terminal extracytosolic fragment of EssB, Ala241 to Lys428) (Geobacillus thermodenitrificans NG80-2); assay: crystal structure; EssB-C, tetragonal P4(3)2(1)2, two molecules in the asymmetric unit, 2.1 M malate pH 7.0, 3.2 Å; dimer made by crystallographic symmetry
[11] = biological target: EssB^Δ D54C (cysteine-free template C48S, C108S, C171S), MTSSL spin-labelled (Geobacillus thermodenitrificans NG80-2); assay: SEC; detergent-solubilised membrane-bound protein; Superdex200 HR 30/100 GL, buffers with 0.02% DDM and 1 ug/ml DOPC
[12] = biological target: EssB^Δ S93C (cysteine-free template C48S, C108S, C171S), MTSSL spin-labelled (Geobacillus thermodenitrificans NG80-2); assay: as above
[13] = biological target: EssB-N D54C (cysteine-free template C48S, C108S, C171S), MTSSL spin-labelled (Geobacillus thermodenitrificans NG80-2); assay: SEC; EssB-N cysteine mutants before and after MTSSL labelling (data not shown)
[14] = biological target: EssB^Δ R86C (cysteine-free template C48S, C108S, C171S), MTSSL spin-labelled (Geobacillus thermodenitrificans NG80-2); assay: SEC; detergent-solubilised membrane-bound protein; Superdex200 HR 30/100 GL, buffers with 0.02% DDM and 1 ug/ml DOPC
[15] = biological target: EssB^Δ N115C (cysteine-free template C48S, C108S, C171S), MTSSL spin-labelled (Geobacillus thermodenitrificans NG80-2); assay: as above
[16] = biological target: EssB^Δ E197C (cysteine-free template C48S, C108S, C171S), MTSSL spin-labelled (Geobacillus thermodenitrificans NG80-2); assay: as above
[17] = biological target: EssB^Δ E139C (cysteine-free template C48S, C108S, C171S), MTSSL spin-labelled (Geobacillus thermodenitrificans NG80-2); assay: as above
[18] = biological target: EssB-C^Δ (C-terminally truncated extracytosolic fragment of EssB, Ala241 to Gln397) (Geobacillus thermodenitrificans NG80-2); assay: SEC; soluble fragments; Superdex75 prep grade HR 16/60, buffer C (10 mM sodium phosphate pH 7.8, 20 mM NaCl, 0.5 mM TCEP), column calibrated with molecular mass standards
[19] = biological target: EssB-C^Δ (C-terminally truncated extracytosolic fragment of EssB, Ala241 to Gln397) (Geobacillus thermodenitrificans NG80-2); assay: crystal structure; EssB-C^Δ, monoclinic C2, four molecules in the asymmetric unit, 3.0 M malonate pH 7.0, 10 mM ZnCl2, 2.4 Å; dimer made by crystallographic symmetry

Substance: EssB (full-length, membrane-bound, Geobacillus thermodenitrificans NG80-2) (natural protein)
stoichiometry N [1]: 2

Substance: EssB^Δ E59C (cysteine-free template C48S, C108S, C171S), MTSSL spin-labelled (domain or fragment)
stoichiometry N [5]: 2

Substance: EssB^Δ E273C (cysteine-free template C48S, C108S, C171S), MTSSL spin-labelled (domain or fragment)
stoichiometry N [6]: 2

Substance: EssB-N D54C (cysteine-free template C48S, C108S, C171S), before MTSSL labelling (domain or fragment)
stoichiometry N [7]: 2

Substance: EssB-C (C-terminal extracytosolic fragment of EssB, Ala241 to Lys428) (domain or fragment)
stoichiometry N [9]: 2 | stoichiometry N [10]: 2

Substance: EssB^Δ D54C (cysteine-free template C48S, C108S, C171S), MTSSL spin-labelled (domain or fragment)
stoichiometry N [11]: 2

Substance: EssB-N D54C (cysteine-free template C48S, C108S, C171S), MTSSL spin-labelled (domain or fragment)
stoichiometry N [13]: 2

Substance: EssB^Δ R86C (cysteine-free template C48S, C108S, C171S), MTSSL spin-labelled (domain or fragment)
stoichiometry N [14]: 2

Substance: EssB^Δ N115C (cysteine-free template C48S, C108S, C171S), MTSSL spin-labelled (domain or fragment)
stoichiometry N [15]: 2

Second part, the substance after the results:

percent monomeric [2]: > 10% | stoichiometry N [3]: 2 | stoichiometry N [4]: 2
Substance: EssB-N (N-terminal, predicted cytoplasmic fragment of EssB, Ser2 to Asp214) (domain or fragment)

stoichiometry N [8]: 2
Substance: EssB^Δ (membrane-bound EssB truncated by 31 C-terminal residues) (domain or fragment)

stoichiometry N [12]: 2
Substance: EssB^Δ S93C (cysteine-free template C48S, C108S, C171S), MTSSL spin-labelled (domain or fragment)

stoichiometry N [16]: 2
Substance: EssB^Δ E197C (cysteine-free template C48S, C108S, C171S), MTSSL spin-labelled (domain or fragment)

stoichiometry N [17]: 2
Substance: EssB^Δ E139C (cysteine-free template C48S, C108S, C171S), MTSSL spin-labelled (domain or fragment)

stoichiometry N [18]: 2 | stoichiometry N [19]: 2
Substance: EssB-C^Δ (C-terminally truncated extracytosolic fragment of EssB, Ala241 to Gln397) (domain or fragment)
